Test results reported in article PMC6143588, “A variant NuRD complex containing PWWP2A/B excludes MBD2/3 to regulate transcription at active genes” (Nature Communications, 2018).
Blank lines part the entries; values can stand above or below the binder they belong to. Where no end group is shown, it is not given here. The star is where a group is joined. 5FAM = O=C1OC2(c3ccc(O)cc3Oc3cc(O)ccc32)c2ccc(C(=O)*)cc21

Experiments:
[1] = target: T1, HDAC1:MTA1 162–354 complex (UniProt Q13547 1-482; Q13330 162-354); assay: fluorescence polarisation; fluorescence anisotropy of 5-FAM PWWP2A peptide with unlabelled HDAC1:MTA1 162-354 complex; room temperature; 50 mM Tris pH 7.5, 150 mM KAc, 0.15 mg/mL BSA, 0.03% Tween-20; excitation 480 nm, emission 535 nm; settings: both partners purified
T1 construct: HDAC1, untagged; MTA1 residues 162-354; Unlabelled complex formed beforehand, used in the anisotropy titration; also called MTA1:HDAC1 complex; HM; source: HEK293F, co-transfected, purified (FLAG resin, TEV cleavage, gel filtration); not shown: His10, N-terminal, cleaved; Flag3, N-terminal, cleaved

[2] = target: T2, His10-Flag3-TEV-MTA1 162-546 (UniProt Q13330 162-546); assay: co-IP + SEC; co-expression in HEK293F of His10-Flag3-TEV-MTA1 162-546 with untagged HDAC1, RBBP4 and PWWP2A 1-373; FLAG resin, TEV cleavage, Superdex S200 in 25 mM Tris-Cl pH 7.5, 50 mM potassium acetate, 0.5 mM TCEP; SDS-PAGE; settings: partners not purified
T2 construct: MTA1 residues 162-546 (ELM2 and SANT domains and an additional domain that recruits RBBP4); The complex was captured by the Flag tag and then cut from the resin with TEV before gel filtration; also called FLAG-MTA1 162-546; MTA1-long; source: HEK293F, co-transfected, purified on FLAG resin, TEV cleavage, gel filtration; not shown: His10, N-terminal, kept; Flag3, N-terminal, kept
T2 sequence (looked up): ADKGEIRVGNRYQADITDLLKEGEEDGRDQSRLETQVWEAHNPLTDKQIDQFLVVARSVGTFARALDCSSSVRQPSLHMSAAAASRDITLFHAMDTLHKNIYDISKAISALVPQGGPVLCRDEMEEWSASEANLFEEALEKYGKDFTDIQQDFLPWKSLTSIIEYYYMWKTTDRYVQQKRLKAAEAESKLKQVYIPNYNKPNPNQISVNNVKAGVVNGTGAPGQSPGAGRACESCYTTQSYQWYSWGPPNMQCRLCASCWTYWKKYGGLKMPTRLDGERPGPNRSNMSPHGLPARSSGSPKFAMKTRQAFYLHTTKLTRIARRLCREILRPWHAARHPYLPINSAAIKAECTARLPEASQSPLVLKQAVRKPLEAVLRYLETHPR

T1 sequence (Q13547 whole entry, chain 1 of 2, one chain of several, the tested form may be a part): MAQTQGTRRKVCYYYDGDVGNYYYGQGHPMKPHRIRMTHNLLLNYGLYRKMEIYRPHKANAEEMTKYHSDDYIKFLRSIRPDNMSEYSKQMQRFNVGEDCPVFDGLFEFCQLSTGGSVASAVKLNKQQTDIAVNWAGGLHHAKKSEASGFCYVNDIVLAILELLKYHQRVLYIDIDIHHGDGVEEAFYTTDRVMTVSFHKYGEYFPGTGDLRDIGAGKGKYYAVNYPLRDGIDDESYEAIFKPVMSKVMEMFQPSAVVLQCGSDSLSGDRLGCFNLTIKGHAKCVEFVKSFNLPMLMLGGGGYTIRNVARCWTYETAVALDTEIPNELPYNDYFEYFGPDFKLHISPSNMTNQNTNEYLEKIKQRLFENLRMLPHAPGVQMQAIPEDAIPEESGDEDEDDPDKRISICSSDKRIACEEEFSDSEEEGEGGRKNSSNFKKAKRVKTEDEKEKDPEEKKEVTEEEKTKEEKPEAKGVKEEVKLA

- Kd [1]: 20 to 100 µM
B1: fluorescein-labelled PWWP2A peptide (residues 311–325) (peptide, UniProt Q96N64 311-325, looked up)
peptide: 5FAM-NAIKLRPRQVLCDKC
modifications: cysteine pairing not given here
notes: PWWP2A residues 311-325, contains the motif R/QPRQV/L; source: synthetic peptide (Cambridge Research Biochemicals)

- stoichiometry N [2]: ~1
B2: PWWP2A1–373, untagged, co-expressed in HEK293F cells (domain or fragment, UniProt Q96N64 1-373, looked up)
chain: MAAVAAEAAATAASPGEGGAGEAEPEMEPIPGSEAGTDPLPVTATEASVPDGETDGQQSAPQADEPPLPPPPPPPGELARSPEAVGPELEAEEKLSVRVAESAAAAPQGGPELPPSPASPPEQPPAPEEREEPPLPQPVAPALVPPAGGDSTVSQLIPGSEVRVTLDHIIEDALVVSFRFGEKLFSGVLMDLSKRFGPHGIPVTVFPKREYKDKPEAMPLQSNTFQEGTEVKCEANGAVPDDPSPVPHPELSLAESLWTSKPPPLFHEGAPYPPPLFIRDTYNQSIPQPPPRKIKRPKRKMYREEPTSIMNAIKLRPRQVLCDKCKNSVVAEKKEIRKGSSATDSSKYEDKKRRNESVTTVNKKLKTDHKVDG
notes: source: HEK293F, co-transfected, co-purified with FLAG-MTA1 (FLAG resin, gel filtration)
